Source: patent US20150299277A1, “AGENT FOR TREATING OR PREVENTING SYSTEMIC INFLAMMATORY RESPONSE SYNDROME” (THE UNIVERSITY OF TOKYO, priority 2012, published 2015)
“Also recorded” adds a separate entry of the source.

B1: CRP: C-reactive protein, short pentraxin used as comparator (protein, UniProt P02741 19-224, looked up)
C-reactive protein: QTDMSRKAFVFPKESDTSYVSLKAPLTKPLKAFTVCLHFYTELSSTRGYSIFSYATKRQDNEILIFWSKDIGYSFTVGGSEILFEVPEVTVAPVHICTSWESASGIVEFWVDGKPRVRKSLKKGYTVGAEASIILGQEQDSFGGNFEGSQSLVGDIGNVNMWDFVLSPDEINTIYLGGPFSPNVLNWRALKYEVQGEVFTKPQLWP
B2: C-terminal domain of PTX3: C-terminal domain human PTX3 (179-381 amino acids), Myc- and His-tagged (protein)
chain: CETAILFPMRSKKIFGSVHPVRPMRLESFSACIWVKATDVLNKTILFSYGTKRNPYEIQLYLSYQSIVFVVGGEENKLVAEAMVSLGRWTHLCGTWNSEEGLTSLWVNGELAATTVEMATGHIVPEGGILQIGQEKNGCCVGGGFDETLAFSGRLTGFNIWDSVLSNEEIRETGGAESCHIRGNIVGWGVTEIQPHGGAQYVS
modifications: left off: small tags and cut ends
notes: C-terminal domain human PTX3 (179-381 amino acids), Myc- and His-tagged
B3: N-terminal domain that lost the oligomer formation capacity: N-terminal domain human PTX3 wherein the 47th, 49th, 103rd cysteine residues were replaced with serine residue (protein)
chain: ENLYFQGENSDDYDLMYVNLDNEIDNGLHPTEDPTPSDSGQEHSEWDKLFIMLENSQMRERMLLQATDDVLRGELQRLREELGRLAESLARPSAPGAPAEARLTSALDELLQATRDAGRRLARMEGAEAQRPEEAGRALAAVLEELRQTRADLHAVQGWAARSWLPAG
modifications: left off: small tags and cut ends
notes: N-terminal domain human PTX3 wherein the 47th, 49th, 103rd cysteine residues were replaced with serine residue

Legend:
[1] = tested on: Calf Thymus Histones on HUVEC; assay: Cytotoxic assay: suppression of histone cytotoxicity on HUVEC; format: cell-based, human; conditions: 100 μg/mL Calf Thymus Histones, 40 μg/mL protein, 1 hr, PI staining, FACS
Method: After culturing for 1 hr in a medium concurrently containing 100 μg/mL Calf Thymus Histones and APC (200 nM), PTX3 (40 μg/mL), CRP (40 μg/mL) or SAP (40 μg/mL), the level of toxic activity was measured by FACS.
Normal human umbilical vein endothelial cells (HUVECs) were cultured in EGM2 medium (Clonetics). The cells after culture were washed with PBS, added with Opti-MEM medium containing an product of incubation of activated protein C (APC), PTX3, C reactive protein (CRP) or Serum amyloid P component (SAP) with histone for 1 hr, and the cells were further cultured for 1 hr. Propidium iodide (PI) was added to the medium after culture at a final concentration of 10 μg/mL, and the cells were stained for 10 min. The cells were washed with PBS, detached and analyzed by flow cytometry.
The histone cytotoxicity on HUVEC was evaluated by propidium iodide (PI) staining.
Lastly, capacity of suppressing the cytotoxic activity of histone was confirmed. Since this experiment requires a certain amount of protein and an endotoxin-elimination as treatment, a protein was expressed and purified at a 500 mL culture scale, and subjected to an endotoxin-elimination treatment (FIG. 18). In the case of PTX3 N-terminal domain, about 10 mg was obtained at a 500 mL culture scale, and a loss by the endotoxin-elimination treatment was scarcely observed. […]

[2] = tested on: Calf Thymus Histones; assay: Aggregation with histone, absorbance at 310 nm; format: binding; conditions: mixture with Calf Thymus Histones
Method: The lower left figure and the lower right figure show the measurement results of absorbance at 310 nm of a mixture of a wild-type or oligomer formation capacity-deficient mutant of PTX3 N-terminal domain having each concentration and 0.1 mg/mL Calf Thymus Histones at 1:1 vol.
The aggregation activity of PTX3 and other pentraxins to histone was evaluated. Calf Thymus Histones (50 μg/mL) were mixed with a PTX3 fragment or the other pentraxin at each concentration, and the absorbance at the wavelength of 310 nm was measured. Before mixing, samples were dialyzed against 4 mM CaCl2-containing TBS.

[3] = tested on: each histone; assay: ELISA binding assay; design: species or system human; conditions: immobilized recombinant histone
Method: Recombinant human histone (NEB) was adjusted to a concentration of 1 μg/mL in TBS, added to a 96 well ELISA plate, and immobilized at 4° C. overnight. The solution was discarded, a blocking buffer (TBS, 0.1% Triton-X100, 1% BSA) was added, and the plate was incubated at room temperature for 2 hr. The plate was washed four times with a wash buffer (TBS, 0.1% Triton-X100), recombinant PTX3 diluted to various concentrations with the blocking buffer was added to each well, and reacted at room temperature for 1 hr. After washing four times with the wash buffer, HRP-labeled antibody diluted with the blocking buffer was added, and reacted at room temperature for 1 hr. After washing four times with the wash buffer, TMB solution was added to carry out a color development reaction for 30 min, and the absorbance at 450 nm was measured. […]
The binding level between immobilized each recombinant histone and tag-free recombinant human PTX3 (rhPTX3) was measured by binding assay (ELISA). […] ELISA was performed with duplicate wells for each point, and means and standard deviations were calculated from three independent experiments.
The binding level between immobilized each recombinant histone and a tagged human PTX3 fragment was measured by binding assay (ELISA). […] ELISA was performed with duplicate wells for each point, and means and standard deviations were calculated from three independent experiments.

[4] = tested on: each histone variant; assay: Aggregation of each histone variant and PTX3 fragment, absorbance at 310 nm; format: binding; conditions: histone variant 50 μg/mL, PTX3 fragment 30 μg/mL
Method: Each histone variant (50 μg/mL) and each PTX3 fragment (30 μg/mL) were mixed, and the absorbance at the wavelength of 310 nm was measured. Before mixing, samples were dialyzed against 4 mM CaCl2-containing TBS.

[5] = tested on: each histone; assay: BIAcore / surface plasmon resonance (SPR) measurement; format: binding, human; conditions: immobilized recombinant histone
Method: For the measurement, BIAcore 3000 or T200 (GE Healthcare) was used. Recombinant human histone was immobilized on CM5 sensor chip by an amine coupling kit (GE Healthcare). The reaction with recombinant PTX3 was performed using a buffer (150 mM NaCl, 20 mM HEPES, 0.005% surfactant P20 (pH 7.4)) at a flow rate of 20 μl/min. Measurement was performed using the buffer containing […]. The sensor chip was regenerated in IM sodium acetate (10 μL, pH 7.2) and 10 mM NaOH (10 μL).
The binding of immobilized each recombinant histone, and Myc- and His-tagged human PTX3 fragment was measured by surface plasmon resonance (SPR). The highest concentration of each PTX3 was as follows. full-length PTX3: 1 nM, N-terminal domain of PTX3: 5 nM, C-terminal domain of PTX3: 50 nM. The assay buffer contained 4 mM CaCl2 (Ca^2+) or 4 mM EDTA/EGTA. The affinity measured by SPR was calculated from three experiments.

Molecule | suppression of toxic activity of Calf Thymus Histones on HUVEC [1] | aggregation with Calf Thymus Histones, absorbance at 310 nm [2] | bindability to each histone (binding assay) [3] | aggregation with each histone variant, absorbance at 310 nm [4] | affinity for each histone by SPR [5]
B1 | do not have such suppressive effect | no aggregation capacity; also recorded: scarcely showed an aggregation activity | – | – | –
B2 | – | weaker than that of the full-length PTX3 and N-terminal domain of PTX3 | weak | aggregated | full-length PTX3>N-terminal domain>C-terminal domain
B3 | – | decrease; also recorded: decreased aggregation activity | decrease; also recorded: scarcely bound | – | affinity decreased as compared to the wild-type
